# Where a chain is given by its changes, count along the chain named.
# T1: mouse CD47 (mouse, UniProt Q61735 19-140, limits assumed)
# T1 sequence (looked up): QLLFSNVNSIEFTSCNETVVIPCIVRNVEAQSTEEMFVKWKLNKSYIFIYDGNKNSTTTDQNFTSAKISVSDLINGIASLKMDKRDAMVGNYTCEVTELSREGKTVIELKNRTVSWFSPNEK
# B1: 4RP13-5-6G (designed binder)
# hSIRPα IgV domain mutant: EEELQVIQPDKSVSVAAGESAILRCTVTSLTPVGPIQWFRGAGPARELIYNQKAKQFPRVTTVSESTKRENMIFSISISNITPADAGTYYCVKFRKGSPDTEFKSGAGTELSVRAKPS
# notes: tested as bacterial supernatant; also called hSIRPα-mt15 (IgV domain)
# B2: 2R-1-4B (designed binder)
# hSIRPα IgV domain mutant: B1 hSIRPα IgV domain mutant with R24H, T31A, A54L, K55D, Q56S, N71S, I73D
# notes: tested as bacterial supernatant; also called hSIRPα-mt14 (IgV domain)
# B3: 2R-1-10B (designed binder)
# hSIRPα IgV domain mutant: B1 hSIRPα IgV domain mutant with R24H, T31I, A54N, K55L, Q56I, T67G, I73D
# notes: tested as bacterial supernatant; also called hSIRPα-mt6 (IgV domain)
# B4: 4RP6-1-10A (designed binder)
# hSIRPα IgV domain mutant: B1 hSIRPα IgV domain mutant with R24H, T31L, A54D, K55F, Q56L, M72R, I73D
# notes: tested as bacterial supernatant; also called S-16; hSIRPα-mt13 (IgV domain)
# B5: 2R-1-7B (designed binder)
# hSIRPα IgV domain mutant: B1 hSIRPα IgV domain mutant with R24H, T26I, T31I, A54I, K55L, Q56T, M72Y, I73D
# notes: tested as bacterial supernatant; also called hSIRPα-mt7 (IgV domain)
# B6: 4RP13-3-7B (designed binder)
# hSIRPα IgV domain mutant: B1 hSIRPα IgV domain mutant with R24T, T31Y, A54R, K55Q, Q56T, E70F, I73D
# notes: tested as bacterial supernatant; also called S-28; hSIRPα-mt10 (IgV domain)
# B7: 4RP13-3-11A (designed binder)
# hSIRPα IgV domain mutant: B1 hSIRPα IgV domain mutant with R24H, T31W, K55W, Q56P, I73D
# notes: tested as bacterial supernatant; also called S-2; hSIRPα-mt3 (IgV domain)
# B8: 2RP-1-3E (designed binder)
# hSIRPα IgV domain mutant: B1 hSIRPα IgV domain mutant with R24T, T31W, A54G, K55Q, Q56N, E70F, I73D
# notes: tested as bacterial supernatant; also called S-7; hSIRPα-mt9 (IgV domain)
# B9: 4RP13-1-7A (designed binder)
# hSIRPα IgV domain mutant: B1 hSIRPα IgV domain mutant with R24H, T31K, A54R, K55D, Q56T, M72R, I73D
# notes: tested as bacterial supernatant; also called S-19; hSIRPα-mt8 (IgV domain)
# B10: 4RP13-1-2G (designed binder)
# hSIRPα IgV domain mutant: B1 hSIRPα IgV domain mutant with T31W, K55F, Q56I, E70G, I73D
# notes: tested as bacterial supernatant; also called S-5; hSIRPα-mt4 (IgV domain)
# B11: 4RP13-3-10B (designed binder)
# hSIRPα IgV domain mutant: B1 hSIRPα IgV domain mutant with R24H, T31Y, A54G, K55R, Q56R, E70A, I73D
# notes: tested as bacterial supernatant; also called S-26; hSIRPα-mt12 (IgV domain)
# B12: 4RP13-3-4D (designed binder)
# hSIRPα IgV domain mutant: B1 hSIRPα IgV domain mutant with R24H, T31L, A54S, Q56V, E70R, I73D
# notes: tested as bacterial supernatant; also called S-11; hSIRPα-mt11 (IgV domain)
# B13: 4RP13-4-5C (designed binder)
# hSIRPα IgV domain mutant: B1 hSIRPα IgV domain mutant with R24N, T31I, A54H, K55Q, Q56T, S66Q, M72R, I73D
# notes: tested as bacterial supernatant; also called S-21; hSIRPα-mt5 (IgV domain)
# Biological target: T2, human CD47 (hCD47) (human, UniProt Q08722 19-139, limits assumed)
# T2 sequence (Q08722 19-139 limits assumed): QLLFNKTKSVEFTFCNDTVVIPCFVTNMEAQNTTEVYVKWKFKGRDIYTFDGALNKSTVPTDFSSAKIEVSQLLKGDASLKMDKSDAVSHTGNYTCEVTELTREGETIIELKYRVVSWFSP
# Test: ELISA, coated hCD47 ECD Fc, supernatant, anti-c-Myc HRP
# Method: (§1) 30 μl of the collected supernatant was added to the ELISA plates and incubated at 25° C. for 1 hour. After the incubation, goat anti-c-Myc HRP with a dilution ratio of 1:10000 was added to the plate, and TMB was added for color development. The absorbance value at 450 nm was measured using a Varioskan™ LUX plate reader.
row,Binder,hCD47 binding (OD)
1,B1,1.65
2,B2,0.946
3,B3,0.51
4,B4,1.87
5,B5,0.687
6,B6,1.49

# Biological target: T2, human CD47 (hCD47)
# Test: as above
# Remark: another data set of the same source
# Method: as §1
row,Binder,hCD47 binding (OD)
1,B7,1.67
2,B8,1.72
3,B9,1.9
4,B10,1.94
5,B11,1.65
6,B12,1.79
7,B13,1.86
8,B4,1.87
9,B6,1.49

# Biological target: T2, human CD47 (hCD47)
# Test: hCD47 binding OD over expression OD
# Method: as §1
row,Binder,hCD47 binding (B/E)
1,B1,1.01
2,B2,0.77
3,B3,0.46
4,B4,2.89
5,B5,0.78
6,B6,1.25

# Biological target: T2, human CD47 (hCD47)
# Test: blocking ELISA, coated hCD47 ECD Fc, supernatant + biotin-SIRPα ECD His
# Method: (§2) 150 μl of the collected supernatant and 20 μl biotin-labeled SIRPα ECD His protein (final concentration: 2.5 μg/ml) were added to the ELISA plates and incubated at 25° C. for 1 hour. After the incubation, avidin HRP (BioLegend, Cat #: 79004) with a dilution ratio of 1:1000 was added to the plate, and TMB was added for color development. The absorbance value at 450 nm was measured using a Varioskan™ LUX plate reader.
Binder,Blocking (OD),Blocking ability (%)
B7,0.319,93.3
B8,0.131,99.9
B9,0.215,95.8
B10,0.194,96.9
B11,0.299,94.7
B12,0.229,99.8
B13,0.21,96.3
B4,0.45,80.1
B6,0.332,92.4

# Biological target: T2, human CD47 (hCD47)
# Test: as above
# Remark: another data set of the same source
# Method: as §2
Binder,Blocking (OD),Blocking ability (%)
B1,1.11,46.3
B2,1.36,27.9
B3,1.37,27.2
B4,0.45,80.1
B5,1.43,23.3
B6,0.332,92.4

# Biological target: T2, human CD47 (hCD47)
# Test: hCD47 binding OD over expression OD
# Remark: another data set of the same source
# Method: as §1
row,Binder,hCD47 binding (B/E)
1,B7,1.53
2,B8,1.61
3,B9,2.44
4,B10,2.27
5,B11,1.33
6,B12,1.7
7,B13,1.65
8,B4,2.89
9,B6,1.25

# Biological target: T1, mouse CD47
# Test: ELISA, coated mouse CD47 ECD Fc, supernatant, anti-c-Myc HRP
# Method: 100 μl of the collected supernatant was added to the ELISA plates and incubated at 25° C. for 1 hour. After the incubation, goat anti-c-Myc HRP with a dilution ratio of 1:10000 was added to the plate, and TMB was added for color development. The absorbance value at 450 nm was measured using a Varioskan™ LUX plate reader.
row,Binder,mCD47 binding (OD)
1,B7,0.348
2,B9,0.293
3,B10,0.412
4,B4,0.41
